Data published in patent US20140087995A1 (published 2014).
Numbered stars: 1 amine (or outer) side, 2 acyl side, 3 side chain; on linkers, the order of the positions; unused ones are H or OH. Bridge positions count the residues as written; N and C are the ends. Side chains are listed from the residue outwards. Ends that are not written are not given here. * marks the point of attachment. C20 diacid = O=C(O)CCCCCCCCCCCCCCCCCCC(=O)*; γGlu = O=C(O)[C@H](CCC(=O)[*:2])N[*:1]; AEEA = NCCOCCOCC(=O)O

T1: human calcitonin receptor (human, UniProt P30988 25-474)
T1 sequence (looked up): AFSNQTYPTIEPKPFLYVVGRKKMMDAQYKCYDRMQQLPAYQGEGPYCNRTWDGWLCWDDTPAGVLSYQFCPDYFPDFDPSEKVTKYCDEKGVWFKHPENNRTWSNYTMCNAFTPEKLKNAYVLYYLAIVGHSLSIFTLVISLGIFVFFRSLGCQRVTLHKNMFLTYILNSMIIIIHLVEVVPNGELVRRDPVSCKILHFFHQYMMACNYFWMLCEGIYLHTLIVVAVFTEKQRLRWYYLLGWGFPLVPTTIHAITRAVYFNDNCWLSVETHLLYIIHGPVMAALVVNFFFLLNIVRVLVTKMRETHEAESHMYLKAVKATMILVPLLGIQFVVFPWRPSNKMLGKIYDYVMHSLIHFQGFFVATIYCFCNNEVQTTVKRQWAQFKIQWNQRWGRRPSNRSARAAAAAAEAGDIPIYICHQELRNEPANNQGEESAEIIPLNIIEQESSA

T2: human amylin receptor (amylin 3(a) receptor: human calcitonin receptor coexpressed with RAMP-3) (human, UniProt P30988 25-474; O60896 24-148)
T2 sequence (looked up) 1: T1 sequence (looked up)
T2 sequence (looked up) 2: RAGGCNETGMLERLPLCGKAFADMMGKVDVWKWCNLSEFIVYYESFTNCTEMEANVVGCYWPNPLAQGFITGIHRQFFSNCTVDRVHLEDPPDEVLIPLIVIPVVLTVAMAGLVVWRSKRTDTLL

B1: N^ε1-[2-[2-[2-[[(4S)-4-carboxy-4-(19-carboxynonadecanoylamino)butanoyl]amino]ethoxy]ethoxy]acetyl]-[Arg14,Arg17,Pro21,Pro27]-h-amylin (peptide)
peptide: K([AEEA-γGlu-C20 diacid])CNTATCATQRLARFLRHSSPNFGAIPSSTNVGSNTY-NH2
modifications: disulfide 2-7; N-terminus assumed
SMILES: CC[C@H](C)[C@H](NC(=O)[C@H](C)NC(=O)CNC(=O)[C@H](Cc1ccccc1)NC(=O)[C@H](CC(N)=O)NC(=O)[C@@H]1CCCN1C(=O)[C@H](CO)NC(=O)[C@H](CO)NC(=O)[C@H](Cc1c[nH]cn1)NC(=O)[C@H](CCCNC(=N)N)NC(=O)[C@H](CC(C)C)NC(=O)[C@H](Cc1ccccc1)NC(=O)[C@H](CCCNC(=N)N)NC(=O)[C@H](C)NC(=O)[C@H](CC(C)C)NC(=O)[C@H](CCCNC(=N)N)NC(=O)[C@H](CCC(N)=O)NC(=O)[C@@H](NC(=O)[C@H](C)NC(=O)[C@@H]1CSSC[C@H](NC(=O)[C@@H](N)CCCCNC(=O)COCCOCCNC(=O)CC[C@H](NC(=O)CCCCCCCCCCCCCCCCCCC(=O)O)C(=O)O)C(=O)N[C@@H](CC(N)=O)C(=O)N[C@@H]([C@@H](C)O)C(=O)N[C@@H](C)C(=O)N[C@@H]([C@@H](C)O)C(=O)N1)[C@@H](C)O)C(=O)N1CCC[C@H]1C(=O)N[C@@H](CO)C(=O)N[C@@H](CO)C(=O)N[C@H](C(=O)N[C@@H](CC(N)=O)C(=O)N[C@H](C(=O)NCC(=O)N[C@@H](CO)C(=O)N[C@@H](CC(N)=O)C(=O)N[C@H](C(=O)N[C@@H](Cc1ccc(O)cc1)C(N)=O)[C@@H](C)O)C(C)C)[C@@H](C)O
notes: also called compound 82
B2: N^ε1-[2-[2-[2-[[(4S)-4-carboxy-4-(19-carboxynonadecanoylamino)butanoyl]amino]ethoxy]ethoxy]acetyl]-[Arg17,Pro21,Pro27,Arg34]-h-amylin (peptide)
peptide: K([AEEA-γGlu-C20 diacid])CNTATCATQRLANFLRHSSPNFGAIPSSTNVGRNTY-NH2
modifications: disulfide 2-7; N-terminus assumed
SMILES: CC[C@H](C)[C@H](NC(=O)[C@H](C)NC(=O)CNC(=O)[C@H](Cc1ccccc1)NC(=O)[C@H](CC(N)=O)NC(=O)[C@@H]1CCCN1C(=O)[C@H](CO)NC(=O)[C@H](CO)NC(=O)[C@H](Cc1c[nH]cn1)NC(=O)[C@H](CCCNC(=N)N)NC(=O)[C@H](CC(C)C)NC(=O)[C@H](Cc1ccccc1)NC(=O)[C@H](CC(N)=O)NC(=O)[C@H](C)NC(=O)[C@H](CC(C)C)NC(=O)[C@H](CCCNC(=N)N)NC(=O)[C@H](CCC(N)=O)NC(=O)[C@@H](NC(=O)[C@H](C)NC(=O)[C@@H]1CSSC[C@H](NC(=O)[C@@H](N)CCCCNC(=O)COCCOCCNC(=O)CC[C@H](NC(=O)CCCCCCCCCCCCCCCCCCC(=O)O)C(=O)O)C(=O)N[C@@H](CC(N)=O)C(=O)N[C@@H]([C@@H](C)O)C(=O)N[C@@H](C)C(=O)N[C@@H]([C@@H](C)O)C(=O)N1)[C@@H](C)O)C(=O)N1CCC[C@H]1C(=O)N[C@@H](CO)C(=O)N[C@@H](CO)C(=O)N[C@H](C(=O)N[C@@H](CC(N)=O)C(=O)N[C@H](C(=O)NCC(=O)N[C@@H](CCCNC(=N)N)C(=O)N[C@@H](CC(N)=O)C(=O)N[C@H](C(=O)N[C@@H](Cc1ccc(O)cc1)C(N)=O)[C@@H](C)O)C(C)C)[C@@H](C)O
notes: also called compound 78

Columns and labels:
[1] = biological target: T1, human calcitonin receptor; experiment: cell-based or functional assay
[2] = biological target: T2, human amylin receptor (amylin 3(a) …); experiment: cell-based or functional assay

Row | Binder | hCTR funct. EC50 (pM) [1] | hAmylin-R funct. EC50 (pM) [2]
1 | B1 | 12700 pM | 215 pM
2 | B2 | 8160 pM | 316 pM
